These results are taken from patent CN113861292A (BIO THERA SOLUTIONS LTD, dated 2021).

The target of assay [1] is T1, 人CD40 (human, UniProt P25942 21-277).
T1 construct: whole, on cells; also called hCD40; CD40 on Daudi cells
The assay is described as follows: flow cytometry (MFI) on HT1080-hCD40 cells. A general note: A flow cytometer gives signals particle by particle.

Assay [2] addresses T1, 人CD40. The assay is described as follows: flow cytometry (MFI) on Daudi cells expressing CD40.
The target in another assay is T2, mCD40-his(小鼠CD40) (小鼠 (mouse), UniProt P27512 24-193, limits assumed).
T2 construct: Bought His-tagged protein; also called 小鼠的CD40
T2 sequence (looked up): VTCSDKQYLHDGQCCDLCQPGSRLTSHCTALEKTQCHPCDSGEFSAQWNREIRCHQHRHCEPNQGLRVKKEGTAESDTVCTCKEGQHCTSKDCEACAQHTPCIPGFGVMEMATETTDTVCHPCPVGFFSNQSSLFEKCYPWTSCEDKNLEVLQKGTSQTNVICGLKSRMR
The assay can be described thus: ELISA, 2 μg/ml mCD40-his coated, HRP second antibody.

T1 sequence (P25942 21-277): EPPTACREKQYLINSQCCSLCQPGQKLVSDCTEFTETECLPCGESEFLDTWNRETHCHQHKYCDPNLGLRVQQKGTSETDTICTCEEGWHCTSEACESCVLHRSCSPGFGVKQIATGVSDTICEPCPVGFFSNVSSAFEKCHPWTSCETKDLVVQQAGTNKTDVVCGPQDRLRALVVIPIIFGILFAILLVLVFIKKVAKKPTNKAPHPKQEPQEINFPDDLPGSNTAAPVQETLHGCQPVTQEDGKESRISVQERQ

B1: APX005 (antibody, V domains shown)
VH: QVQLVESGGGVVQPGRSLRLSCAASGFSFSSTYVCWVRQAPGKGLEWIACIYTGDGTNYSASWAKGRFTISKDSSKNTVYLQMNSLRAEDTAVYFCARPDITYGFAINFWGPGTLVTVSS
VL: DIQMTQSPSSLSASVGDRVTIKCQASQSISSRLAWYQQKPGKPPKLLIYRASTLASGVPSRFSGSGSGTDFTLTISSLQPEDVATYYCQCTGYGISWPIGGGTKVEIK
What is called EC50 is the midpoint of the concentration-response curve. Read a low EC50 as a more potent agent. On to B1, for which the EC50 was determined as 0.995 µg/mL with 人CD40 [1] and 0.86 µg/mL with 人CD40 [2].

B2: 抗体25 (antibody, human IgG1, kappa, V domains shown)
VH: EVQLVESGGGLVQPGGSLRLSCAASGFSFGTYAMSWVRQAPGKGLEWVSGIDSGTGNPFYADSVKGRFTISRDNSKNTLYLQMNSLRAEDTAVYYCARALYYTGFYRPLDYWGQGTLVTVSS
VL: DIQMTQSPSSLSASVGDRVTITCRASQGISSYLAWYQQKPGKAPKLLIYAASSLQSGVPSRFSGSGSGTDFTLTISSLQPEDFATYYCQQHYTTPPTFGQGTKVEIKR
notes: also called antibody 25; 抗CD40抗体
Regarding B2, the EC50 turned out to be 0.593 µg/mL with 人CD40 [1] and 0.414 µg/mL with 人CD40 [2]. Moreover, the binding result with mCD40-his(小鼠CD40) is recorded as “no binding”.
